Laboratory results reported in patent US20260062488A1 (AbbVie / Abbott, published 2026).
Positions count from the first letter of the chain named. Names may count otherwise.

Experiments:
[1] = target: T1, human FcγRIIc on CHO-K1 cells (human, UniProt P31995 43-323); assay: flow cytometry on CHO-K1 cells expressing the receptor (curve FcgRIIC), monomeric antibody, F(ab')2 anti-human IgG AF647; N=1
T1 construct: whole, on cells
T1 sequence (looked up): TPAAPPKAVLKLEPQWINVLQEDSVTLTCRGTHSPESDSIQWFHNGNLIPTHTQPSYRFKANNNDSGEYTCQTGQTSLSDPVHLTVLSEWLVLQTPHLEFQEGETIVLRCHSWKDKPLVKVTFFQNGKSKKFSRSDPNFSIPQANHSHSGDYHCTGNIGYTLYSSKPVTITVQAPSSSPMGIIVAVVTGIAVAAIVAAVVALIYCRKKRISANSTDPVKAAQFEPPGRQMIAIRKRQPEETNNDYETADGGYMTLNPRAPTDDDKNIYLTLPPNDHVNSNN

[2] = target: T2, human FcγRIIIa (V176) on CHO-K1 cells (human, UniProt P08637 17-254); assay: flow cytometry on CHO-K1 cells expressing the receptor (curve FcgRIIIA V176), monomeric antibody, F(ab')2 anti-human IgG AF647; N=1
T2 construct: whole, on cells; also called V158

FcgRIIIB SH = target: T3, FcgRIIIB SH (human, UniProt O75015); assay: flow cytometry on CHO-K1 cells expressing the receptor (curve FcgRIIIB SH), monomeric antibody, F(ab')2 anti-human IgG AF647; N=1
T3 construct: cell surface, on engineered CHO-K1 cells; the list of molecules has only an FcγRIIIb on CHO-K1 cells without the allotype; also called human FcγRIIIb (SH) on CHO-K1 cells

[3] = target: T4, human FcγRIIa (H131) extracellular domain protein (human, UniProt P12318 34-217); assay: SPR (Biacore), N = 1
T4 construct: extracellular domain; also called hFcγRIIa (H131); FcγRIIa 131H
T4 sequence (looked up): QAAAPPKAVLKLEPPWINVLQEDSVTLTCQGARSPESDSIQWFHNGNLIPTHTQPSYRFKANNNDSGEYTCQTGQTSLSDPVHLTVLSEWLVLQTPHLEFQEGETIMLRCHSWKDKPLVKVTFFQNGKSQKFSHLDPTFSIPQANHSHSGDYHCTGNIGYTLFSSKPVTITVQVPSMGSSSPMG

[4] = target: T5, human FcγRIIa (R131) extracellular domain protein (human, UniProt P12318 34-217); assay: SPR (Biacore), N = 1
T5 construct: extracellular domain; also called hFcγRIIa (R131); FcγRIIa 131R
T5 sequence (looked up): T4 sequence (looked up) with H134R

[5] = target: T6, human FcγRI extracellular domain protein (human, UniProt P12314 16-292); assay: SPR (Biacore), N = 1
T6 construct: extracellular domain; also called hFcγRI

[6] = target: T7, human FcγRIIIa (F158) extracellular domain protein (human, UniProt P08637 17-208); assay: SPR (Biacore), N = 1
T7 construct: extracellular domain; also called hFcγRIIIa (F158); FcγRIIIa158F

[7] = target: T8, human FcγRIIIa (V158) extracellular domain protein (human, UniProt P08637 17-208); assay: SPR (Biacore), N = 1
T8 construct: extracellular domain; also called hFcγRIIIa (V158); FcγRIIIa158V

[8] = target: T9, human FcγRIIb extracellular domain protein (human, UniProt P31994 43-217); assay: SPR (Biacore), N = 1
T9 construct: extracellular domain; also called hFcγRIIb
T9 sequence (looked up): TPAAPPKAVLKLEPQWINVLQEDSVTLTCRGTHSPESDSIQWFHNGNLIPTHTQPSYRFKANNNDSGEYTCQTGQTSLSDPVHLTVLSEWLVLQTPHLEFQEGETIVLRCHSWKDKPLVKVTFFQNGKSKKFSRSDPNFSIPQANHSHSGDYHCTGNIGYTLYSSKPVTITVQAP

cynomolgus α4β7 integrin [9] = target: T10, cynomolgus α4β7 integrin (cynomolgus monkey); assay: FACS, cynomolgus lymphocytes
T10 construct: whole, on cells; On CHOK1-cα4β7 cells or cynomolgus blood lymphocytes; also called cα4β7; cyno α4β7

cynomolgus α4β7 integrin [10] = target: T10, cynomolgus α4β7 integrin; assay: FACS, cyno CD8+ total
cynomolgus α4β7 integrin [11] = target: T10, cynomolgus α4β7 integrin; assay: FACS, cyno CD4+ naïve
FcgRIIA H131 = target: T11, FcgRIIA H131 (human, UniProt P12318); assay: flow cytometry on CHO-K1 cells expressing the receptor (curve FcgRIIA H131), monomeric antibody, F(ab')2 anti-human IgG AF647; N=1
T11 construct: cell surface, on engineered CHO-K1 cells; the list of molecules has only an FcγRIIa on CHO-K1 cells without the variant; also called human FcγRIIa (H131) on CHO-K1 cells
T11 sequence (receptor chain, looked up): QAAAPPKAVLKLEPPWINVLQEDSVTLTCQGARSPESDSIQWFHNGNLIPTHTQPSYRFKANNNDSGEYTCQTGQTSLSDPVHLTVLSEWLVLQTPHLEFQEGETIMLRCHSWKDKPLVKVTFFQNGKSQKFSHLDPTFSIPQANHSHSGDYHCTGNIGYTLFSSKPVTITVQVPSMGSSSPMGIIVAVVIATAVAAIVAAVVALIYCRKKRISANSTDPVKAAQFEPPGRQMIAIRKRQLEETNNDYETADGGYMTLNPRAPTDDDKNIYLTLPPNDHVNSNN

rabbit α4β7 integrin = target: T12, rabbit α4β7 integrin (rabbit); assay: FACS, rabbit CD4+ T cells
T12 construct: whole, on cells; On rabbit PBMCs

cynomolgus α4β7 integrin [12] = target: T10, cynomolgus α4β7 integrin; assay: binding, cynomolgus CD4+ memory T cells, summary table
cynomolgus α4β7 integrin [13] = target: T10, cynomolgus α4β7 integrin; assay: FACS, cyno CD8+ memory
[14] = target: T13, human FcγRI on CHO-K1 cells (human, UniProt P12314 16-374); assay: flow cytometry on CHO-K1 cells expressing the receptor (curve FcgRI), monomeric antibody, F(ab')2 anti-human IgG AF647; N=1
T13 construct: whole, on cells
T13 sequence (P12314 16-374): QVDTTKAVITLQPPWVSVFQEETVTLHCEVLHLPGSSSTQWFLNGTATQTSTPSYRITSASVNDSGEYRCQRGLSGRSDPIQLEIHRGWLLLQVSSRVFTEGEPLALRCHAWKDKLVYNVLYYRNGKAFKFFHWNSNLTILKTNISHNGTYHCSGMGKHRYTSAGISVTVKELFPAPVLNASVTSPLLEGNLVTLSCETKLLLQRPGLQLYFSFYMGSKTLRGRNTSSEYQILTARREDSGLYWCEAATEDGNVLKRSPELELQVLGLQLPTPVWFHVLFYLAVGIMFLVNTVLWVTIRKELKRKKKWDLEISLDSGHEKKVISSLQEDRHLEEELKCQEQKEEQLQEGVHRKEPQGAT

T6 sequence (P12314 16-292): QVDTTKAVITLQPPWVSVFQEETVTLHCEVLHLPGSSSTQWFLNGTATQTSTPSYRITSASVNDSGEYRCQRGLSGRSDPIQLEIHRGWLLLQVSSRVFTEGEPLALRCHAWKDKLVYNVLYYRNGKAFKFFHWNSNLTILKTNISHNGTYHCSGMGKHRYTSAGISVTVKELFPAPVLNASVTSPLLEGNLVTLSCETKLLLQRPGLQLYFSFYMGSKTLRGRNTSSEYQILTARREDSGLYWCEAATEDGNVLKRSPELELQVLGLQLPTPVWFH
T3 sequence (O75015 17-200 N65S/A78D limits assumed): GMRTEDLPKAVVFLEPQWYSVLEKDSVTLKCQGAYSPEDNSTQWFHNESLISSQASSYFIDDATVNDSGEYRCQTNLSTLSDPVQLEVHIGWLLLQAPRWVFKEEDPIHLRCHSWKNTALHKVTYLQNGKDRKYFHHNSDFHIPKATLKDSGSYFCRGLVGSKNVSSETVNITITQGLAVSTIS
T2 sequence (P08637 17-254 F176V limits assumed): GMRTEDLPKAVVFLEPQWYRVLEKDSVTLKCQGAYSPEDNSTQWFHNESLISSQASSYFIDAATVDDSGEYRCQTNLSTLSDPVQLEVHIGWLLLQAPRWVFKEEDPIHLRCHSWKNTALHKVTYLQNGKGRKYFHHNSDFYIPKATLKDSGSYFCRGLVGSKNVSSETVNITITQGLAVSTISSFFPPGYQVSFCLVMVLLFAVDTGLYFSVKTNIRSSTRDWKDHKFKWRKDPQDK
T7 sequence (P08637 17-208): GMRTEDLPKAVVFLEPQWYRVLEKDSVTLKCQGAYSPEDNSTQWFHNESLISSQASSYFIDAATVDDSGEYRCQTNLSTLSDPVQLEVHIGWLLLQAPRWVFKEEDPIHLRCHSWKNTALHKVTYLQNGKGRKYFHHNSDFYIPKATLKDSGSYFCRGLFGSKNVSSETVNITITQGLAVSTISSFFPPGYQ
T8 sequence (P08637 17-208 F176V limits assumed): as the sequence (P08637 17-208) above, with F160V counted along it

B1: Ab-h1.9d-WT (antibody, human IgG1, kappa)
heavy: not shown
light: DIQMTQSPSSLSASVGDRVTITCHASQDISDNIGWLQQKPGKSFKLLIYHGTNLEDGVPSRFSGSGSGTDYTLTISSLQPEDFATYYCVQYAQFPWTFGGGTKVEIKRTVAAPSVFIFPPSDEQLKSGTASVVCLLNNFYPREAKVQWKVDNALQSGNSQESVTEQDSKDSTYSLSSTLTLSKADYEKHKVYACEVTHQGLSSPVTKSFNRGEC
notes: IgG1/kappa with D356E and L358M (EU); also called Anti-human α4β7 (AC-166667) hu IgG1/k WT mAb
binding result [1]: binds | binding result [2]: binds | binding result (FcgRIIIB SH): binds | Kd [3]: 4000 nM | Kd [4]: 5200 nM | Kd [5]: 7 nM | Kd [6]: 3100 nM | Kd [7]: 100 nM | Kd [8]: 12000 nM | EC50 (cynomolgus α4β7 integrin [9]): 0.062 nM | EC50 (cynomolgus α4β7 integrin [10]): 0.035 nM | EC50 (cynomolgus α4β7 integrin [11]): 0.045 nM | binding result (FcgRIIA H131): binds | EC50 (rabbit α4β7 integrin): 0.097 nM | EC50 (cynomolgus α4β7 integrin [12]): 0.01 nM | EC50 (cynomolgus α4β7 integrin [13]): 0.036 nM | binding result [14]: binds
